pKd: −log10 of the molar value.
Legend:
Assay in all cases: MST
CCR5^QTY – SZ190b (SF9) = biological target: CCR5^QTY – SZ190b (SF9)
[1] = biological target: CCR5^QTY – SZ190b (E. coli)
CCR5^QTY (SF9) = biological target: CCR5^QTY (SF9)
CCR5^QTY – SZ218a (SF9) = biological target: CCR5^QTY – SZ218a (SF9)
CCR5^QTY (E. coli) = biological target: CCR5^QTY (E. coli)
[2] = biological target: CCR5^QTY – SZ218a (E. coli)
CXCR4^QTY (E. coli) = biological target: CXCR4^QTY (E. coli)
[3] = biological target: CXCR4^QTY – SZ158a (E. coli)

Substance | pKd (CCR5^QTY – SZ190b (SF9)) | pKd [1] | pKd (CCR5^QTY (SF9)) | pKd (CCR5^QTY – SZ218a (SF9)) | pKd (CCR5^QTY (E. coli)) | pKd [2] | pKd (CXCR4^QTY (E. coli)) | pKd [3]
CCL5 (from UniProt P13501 24-91) (ligand) | 7.42 | 7.25 | 7.39 | 7.29 | 8.17 | 7.06 |  | 
HIV-1 coat glycoprotein gp41-120 |  |  |  |  |  |  | 8.15 | 6.70
